The text below walks through data of patent US20220048982A1 (Eli Lilly, published 2022).

Residue numbers refer to the chain shown, from its start. Read-outs that look alike come from different tables or passages of the source.

Experiment [1] concerns the target pHAb-dye labelled human α-synuclein fibrils (1-140) (human, UniProt P37840 1-140). As to the kind of experiment: cell-based or functional assay.
Experiment [2] has as its target T1, recombinant human α-synuclein fibril (human, UniProt P37840 1-140). As to the kind of experiment: cell-based or functional assay.
Experiment [3] concerns the target T2, monomeric human α-synuclein (human, UniProt P37840 1-140). As to the kind of experiment: Kinexa at 37 C, solution equilibrium.
Method: (§1) These samples are incubated for 24 to 48 hours at 37 C to allow for steady state equilibrium to be achieved. During this time, sepharose beads are conjugated with monomeric human alpha-synuclein and blocked with a suitable non-specific binding protein (typically BSA or casein). Once steady state is achieved, a small capillary is packed with coated beads and samples of each fixed antibody/alpha-synuclein monomer are injected over the column. […] This step is repeated for each concentration of alpha-synuclein monomer and resultant fluorescent signal (proportional to percent free antibody) and then plotted as a function of fluorescent signal versus monomeric α-synuclein concentration and globally fit to a 1:1 binding model to obtain KD. Independent runs (n=3) run with technical duplicates (95% confidence intervals) are reported.
Experiment [4] concerns the target monomeric rabbit alpha-synuclein (rabbit). As to the kind of experiment: Kinexa at 37 C, solution equilibrium.
Method: as §1
Experiment [5] has as its target monomeric rat alpha-synuclein (rat, UniProt P37377 1-140). As to the kind of experiment: Kinexa at 37 C, solution equilibrium.
Method: as §1
Experiment [6] concerns the target monomeric mouse alpha-synuclein (mouse, UniProt O55042 1-140). In words: Kinexa at 37 C, solution equilibrium.
Method: as §1
In experiment [7] the target is T3, mIgG1-hAsyn100-140 (mouse; human, UniProt P37840 100-140).
T3 construct: C-terminal fragment of human α-synuclein fused onto the C-terminal end of a mouse Fc; also called dimeric human alpha-synuclein; dimeric α-synuclein; not shown: mouse IgG1 Fc fragment; short unstructured linker element
As to the kind of experiment: MSD-SET solution equilibrium at 25 C.

Experiment [8] has as its target T3, mIgG1-hAsyn100-140. In words: MSD-SET solution equilibrium at 37 C.
Method: During this incubation time, an MSD Sector plate is coated with monomeric human alpha-synuclein and blocked with a blocking reagent (i.e. BSA, casein). Following steady state equilibrium incubation times, individual antibody/mIgG1-hAsyn 100-140 mixtures are added simultaneously to the plate and allowed to incubate for 10 minutes to capture free antibody and minimize exchange with antibody in complex with mIgG1-hAsyn100-140. Following this short incubation, plates are subsequently washed and incubated with a biotinylated anti-human secondary antibody, followed by detection using streptavidin-S-tag on the MSD instrument. The resultant MSD signal (proportional to % free antibody) is then plotted as a function of mIgG1-hAsyn100-140 concentration and globally fit to a four parameter fit to obtain IC₅₀ (KD). Reported 95% confidence intervals represent the fitting of N=3 independent runs each with technical duplicates. The avidity-factor is the ratiometric difference between monomer affinity and dimer affinity and represents the selectivity in binding between monomeric and dimeric α-synuclein for antibody.
Experiment [9] concerns the target monomeric human alpha-synuclein fragment 1-121 (human, UniProt P37840 1-121). As to the kind of experiment: Kinexa at 37 C, solution equilibrium.
Method: as §1
Experiment [10] has as its target monomeric human alpha-synuclein fragment 1-115 (human, UniProt P37840 1-115). In words: Kinexa at 37 C, solution equilibrium.
Method: as §1
The target in experiment [11] is T2, monomeric human α-synuclein. As to the kind of experiment: Kinexa at 37 C, solution equilibrium. The source holds these as a separate data set.
Method: as §1
Experiment [12] deals with T1, recombinant human α-synuclein fibril. As to the kind of experiment: ELISA, plate coated with fibril at 1 µg/ml.
Method: An Enzyme-Linked Immunosorbent Assay (ELISA) is performed for quantitative determination of antibody affinity to recombinant human α-synuclein fibril.
(§2) An ELISA plate is coated with recombinant human α-synuclein fibril at 1 μg/ml in PBS overnight at 4° C. The next day, the plate is incubated with 1% casein for 1 hour at room temperature to block non-specific binding sites on the plate. […] After incubation, the plate is washed three times with 0.1% PBST to remove un-bound antibody and incubated with a detection agent (1:1000 diluted goat-anti-human Kappa-AP) in 0.1% PBST for 1 hour at room temperature. The plate is washed three times with 0.1% PBST to remove un-bound detection agent and incubated with a substrate for 15 minutes at room temperature. The OD is then read in an ELISA plate reader at 560 nm. The binding curve is obtained based on the antibody concentration and OD560 readout.
The target in experiment [13] is T3, mIgG1-hAsyn100-140. As to the kind of experiment: ratio of Kinexa KD for monomeric human α-synuclein to MSD-SET KD for dimeric α-synuclein, 37 C.
Method: During this time, sepharose beads are conjugated with monomeric human alpha-synuclein and blocked with a suitable non-specific binding protein (typically BSA or casein). Once steady state is achieved, a small capillary is packed with coated beads and samples of each fixed antibody/alpha-synuclein monomer are injected over the column. […] This step is repeated for each concentration of alpha-synuclein monomer and resultant fluorescent signal (proportional to percent free antibody) and then plotted as a function of fluorescent signal versus monomeric α-synuclein concentration and globally fit to a 1:1 binding model to obtain KD. Independent runs (n=3) run with technical duplicates (95% confidence intervals) are reported.
During this incubation time, an MSD Sector plate is coated with monomeric human alpha-synuclein and blocked with a blocking reagent (i.e. BSA, casein). Following steady state equilibrium incubation times, individual antibody/mIgG1-hAsyn 100-140 mixtures are added simultaneously to the plate and allowed to incubate for 10 minutes to capture free antibody and minimize exchange with antibody in complex with mIgG1-hAsyn100-140. Following this short incubation, plates are subsequently washed and incubated with a biotinylated anti-human secondary antibody, followed by detection using streptavidin-S-tag on the MSD instrument. […]
Experiment [14] concerns the target T4, biotinylated human α-synuclein peptide 120-140 (human, biotinylated (site not stated)).
T4 construct: also called α-synuclein fragment 120-140
T4 peptide: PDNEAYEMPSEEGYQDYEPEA
As to the kind of experiment: ELISA on biotinylated human alpha-synuclein peptide 120-140, detection with goat anti-human kappa-AP, OD560.

Experiment [15] addresses T2, monomeric human α-synuclein. In words: ELISA on plate-coated full-length (1-140) human alpha-synuclein, detection with goat anti-human kappa-AP, OD560.
Method: as §2
(§3) Binding full-length (1-140) α-synuclein is also determined. The procedure is essentially as described above for α-synuclein fibril binding.
Experiment [16] has as its target truncated human α-synuclein fragment 1-120 (human, UniProt P37840 1-120). In words: ELISA on plate-coated truncated human alpha-synuclein fragment 1-120, detection with goat anti-human kappa-AP, OD560.
Method: as §2, §3

B1: Antibody 1 (antibody, human IgG4 S228P, kappa, F234A L235A, V domains shown)
VH: EVQLLESGGGLVQPGGSLRLSCAASGFTFSSYAMSWVRQAPGKGLEWVSAISGSGGDTYYADSVKGRFTISRDNSKNTLYLQMNSLRAEDTAVYYCARGYGMDVWGQGTTVTVSS
VL: DVVMTQSPLSLPVTLGQPASISCRSSQSLVHSDGNTYLMWFQQRPGQSPRRLIYKVSNRNSGVPDRFSGSGSGTDFTLKISRVEAEDVGVYYCMQGTKQYPTFGQGTKLEIKR
modifications: about 1% of the N-terminal glutamic acid may be converted to pyroglutamic acid; less than about 1% of the C-terminal glycine may be clipped
notes: IgG4PAA, kappa
As for B1, in experiment [1], the “Average IC50, inhibition of fibril internalization into SH-SY5Y cells” value worked out at 0.45 µg/mL. Moreover, the “IC50 Standard Deviation, inhibition of fibril internalization into SH-SY5Y cells” value in [1] was 0.017 µg/mL. Also, the “Average IC50, inhibition of alpha-synuclein aggregation in SHSY-5Y-A53T-myc cells” value in [2] is 0.41 µg/mL. The dissociation constant (Kd) in [3] turned out to be 19 nM; in experiment [4], 554 nM; in experiment [5], 89 nM; in experiment [6], 49.7 nM; with mIgG1-hAsyn100-140 [7], 0.12 pM; in the experiment with mIgG1-hAsyn100-140 [8], 0.97 pM. Further, the values for the Kd in [9], in experiment [10] and in experiment [11] were 11.8 nM, 675 nM and 19 nM, respectively. For the same molecule, the EC50 in [12] worked out at 0.193 ng/mL. Also, the “avidity factor (monomer KD against dimer KD)” value in the experiment with mIgG1-hAsyn100-140 [13] was ~20000 fold. Besides, the “EC50 (read off the curve)” value was ~0.9 nM in experiment [14], ~1 nM in experiment [15] and ~0.7 nM in experiment [16].

B2: Antibody 2 (antibody, human IgG4 S228P, kappa, F234A L235A, V domains shown)
VH: B1 VH with K65Q
VL: B1 VL with S28D, N58D
modifications: about 1% of the N-terminal glutamic acid may be converted to pyroglutamic acid; less than about 1% of the C-terminal glycine may be clipped
notes: IgG4PAA, kappa
Turning to B2, the “Average IC50, inhibition of fibril internalization into SH-SY5Y cells” value in experiment [1] stood at 0.56 µg/mL. For the same molecule, the “IC50 Standard Deviation, inhibition of fibril internalization into SH-SY5Y cells” value in experiment [1] came out at 0.026 µg/mL. In [2], the “Average IC50, inhibition of alpha-synuclein aggregation in SHSY-5Y-A53T-myc cells” value was determined as 0.4 µg/mL. Also, the equilibrium dissociation constant (Kd) in experiment [3] was determined as 65.6 nM; in experiment [4], 1020 nM; in [5], 140 nM; in experiment [6], 99.3 nM; with mIgG1-hAsyn100-140 [7] it was 3.2 pM. In experiment [12], the EC50 came out at 0.161 ng/mL. Also, the entries for the “EC50 (read off the curve)” value in [14], in experiment [15] and in [16] were ~5 nM, ~0.8 nM and ~0.6 nM, respectively.
